The assay has as its system CD4+ T cell blasts. Description: T cell blast proliferation in co-culture with MSCs (3H-thymidine incorporation). It is filed as cell-based, mouse. The procedure:
FIG. 1. is a graph showing that immunosuppression by MSCs is induced by proinflammatory cytokines. Cloned MSCs were supplemented with the indicated combinations of recombinant cytokines (20 ng/ml each) for 8 hours, then co-cultured with CD4+ T cell blasts at a 1:20 ratio (MSC:T cells), and proliferation assessed after an additional 8 hours. Values represent means±SD of five wells from a representative of three experiments with different clones. * p<0.001.
FIGS. 9A, 9B, 9C, 9D, 9E, 9F and 9G. (FIG. 9A). Cloned MSCs were first treated with the indicated combinations of recombinant cytokines IFNγ, TNFα, IL-17A (2 ng/ml each) for 12 hr, then cocultured with CD4^+ T cell blasts at a 1:20 ratio (MSC:T cells), and proliferation was assessed by 3H-thymidine incorporation after an additional 12 hr. (FIG. 9B). The mRNA expression of IL-17 receptor family members in MSCs or Raw 264.7 (Macrophages) were examined by RT-PCR. NC: No RT. (FIG. 9C). Surface expression of IL-17RA was detected by immunofluoresence or flow cytometry in cloned MSCs. (FIGS. 9D and 9E). MSCs were first treated with IFNγ and TNFα with or without IL-17A (10 ng/ml), IFNγ and TNFα were supplemented at different cytokine concentrations, for 12 hr, and then cocultured with CD4^+ T cell blasts (FIG. 9D) or T cell hybridoma A1.1 cells (FIG. 9E) at a ratio of 1:20 for 12 hr. T cell proliferation was measured by 3H-Tdr incorporation. (FIG. 9F). MSCs were first treated with IFNγ and TNFα (2 ng/ml) with graded concentrations of IL-17A, for 12 hr, and then cocultured with T cell hybridoma A1.1 cells at a ratio of 1:10 for 12 hr. T cell proliferation was measured by 3H-thymidine incorporation. (FIG. 9G). MSCs were cocultured with fresh C57BL/6 splenocytes plus anti-CD3, anti-CD28, and antibodies against IL-17A, at a 1:20 or 1:40 ratio (MSCs:splenocytes), for 48 hr, and then cell proliferation was assessed by 3H-thymidine incorporation. Proliferation values represent means±SEM of three wells from a representative of three experiments.
T cell blasts were generated from CD4^+ T cells purified by negative selection with […] T cell subset isolation kits (R&D Systems). Cells (1×10^6 cells/ml) were activated by plastic-bound anti-CD3 and soluble anti-CD 28 for 48 hours, then cultured with IL-2 (200 U/ml) alone for 48 hours. All T cell cultures were maintained in RPMI-1640 medium supplemented with 10% heat-inactivated FBS, 2 mM glutamine, 100 U/ml penicillin, 100 μ·g/ml streptomycin, and […] (complete medium).
Since most reported studies of immunosuppression by MSCs are based on their effects on T cell proliferation and cytokine production, the effect of MSCs was first examined on the IL-2-driven proliferation of T cell blasts. Fresh CD4^+ T cell blasts were generated from splenocytes by activation with anti-CD3 followed by expansion with IL-2 for several days (Devadas, et al. (2006) Immunity 25:237-247; Radvanyi, et al. (1996) Cell Immunol. 170:260-273). T cell blasts were added at a 1:20 ratio (MSC:T cells) along with IL-2 (200 U/ml). Cell proliferation was assessed by ^3H-Tdr incorporation after 8 hours. […] MSCs also had no effect on the proliferation of T hybridoma A1.1 cells. These T cells blasts and T hybridoma cells, however, produce no cytokines unless reactivated through the TCR (Fotedar, et al. (1985) J. Immunol. 135(5):3028-33). Thus, in the absence of T cell cytokines, MSCs were unable to suppress T cell proliferation.
The effect of IFNγ was then tested directly by adding isolated recombinant IFNγ (20 ng/ml) instead of activated splenocyte supernatant to the mixed co-cultures of MSC+ T cell blasts or MSC+A1.1 cells. […] Therefore, induction of the immunosuppressive function of MSCs by anti-CD3-activated splenocyte supernatant may be due to IFNγ acting in concert with either TNFα; IL-1α; or IL-1β on the MSCs. […]
A general note: Incorporation of labelled thymidine or its analogues reports DNA synthesis.

The record followed here is patent publication US12156889B2, “Methods of administering mesenchymal stem cells activated by cytokines for enhancing immunosuppression” (Rutgers, The State University of New Jersey, priority 2012, dated 2024).

“Also recorded” adds a separate entry of the source.

B1: IL-17A: recombinant mouse interleukin 17A (protein)
chain: AAIIPQSSACPNTEAKDFLQNVKVNLKVFNSLGAKVSSRRPSDYLNRSTSPWTLHRNEDPDRYPSVIWEAQCRHQRCVNAEGKLDHHMNSVLIQQEILVLKREPESCPFTFRVEKMLVGVGCTCVASIVRQAA
On to B1, for which the “T cell proliferation after MSC treatment with low-concentration cytokines” value (2 ng/ml each, 12 hr, then 1:20 MSC:T cells) was “cannot induce immunosuppression; also recorded: markedly enhanced”. Also, for the setting “10 ng/ml IL-17A, CD4+ T cell blasts or A1.1”, the “IFNγ and TNFα concentrations (as low as) at which IL-17A enhances the immunosuppressive effect of MSCs” value was 1 to 2 ng/mL. Moreover, the “immunosuppression at higher concentrations of IFNγ and TNFα” value (IFNγ and TNFα 10-20 ng/ml) was “still improved immunosuppression”.
